Assay results reported in the nanobody polyreactivity screen of Harvey et al. (2022).

Assay: yeast display, Sf9 membrane polyspecificity reagent, FACS + sequencing; frameworks hold sequencing errors
Method in brief: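 Synthetic nanobody libraries on Saccharomyces cerevisiae BJ5465 were galactose-induced for 36–48 hours, stained 1 hour at 4 °C with 10% biotinylated, detergent-solubilized Sf9 membrane reagent and enriched on streptavidin microbeads. FACS then separated cells into low and high (top ~1%) gates by anti-HA (expression) and streptavidin (reagent binding) fluorescence. Genes were colony-PCR amplified, MiSeq 2 × 250 sequenced and CDR-length filtered. A clone's polyreactivity label is that of its gate of origin.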
With “QVQLVESGGGLVQAGGSLRISCAASGRTFGIYAMGWYIKGPGKERELVADITIGGSTFYADSVKGRFTISRDNAKNTVYLPMNSLKPEDTAVYYCYDDVVVQYYFTYYRFFTYDYWGQGTQVTVSS” the “polyreactivity (PSR sort gate)” value was “low polyreactivity”. For “QVQLVESGGGLVQAGGSLRISCAASGRTFGYYGMGWSRQAPGKERELVAGITSRGGSTYYADSVKGRFTISRDNAKNTVYLQMNSLKPEDTAVYYCNAQYARKYGFWTAYDYWGQGTQVTVSS”, the “polyreactivity (PSR sort gate)” value was “high polyreactivity”. For “QVQLVESGGGLVQAGGSLRISCAASGRTFKNYSMGWYRQAPGKERELVAAITSGGITNYADSVKGRFTISRDNAKNTVYLQMNRLKPEDTAVYYCNTRRGWRDFDYWGQGTQVTVSS”, the “polyreactivity (PSR sort gate)” value was “low polyreactivity”. For “QVQLVESGGGLVQAGGSLRISCAASGRTFRPYPMGWYRQAPGKDRELVAAIDSSGTSTYYADSVKGRFTISRDNAKNTVYLQMNSLKPEDTAVYYCAKAWPDHWYSRYDYWGQGTQVTVSS”, the “polyreactivity (PSR sort gate)” value was “low polyreactivity”. For “QVQLVESGGGLVQAGGSLRISCAASGRTFVGNAMGWYRQAPGKERELVAAMTLSDGSTYYADSVKGRFTISRDIAMNTVYLQMNSLKPEDTAVYYCNAGDGPDEEYDYWGQVTQVTVSS”, the “polyreactivity (PSR sort gate)” value was “low polyreactivity”. With “QVQLVESGGGLVQAGGSLRISCAASGRTFYANAMGWYRQAPGKERELVAAISSNGGSTYYADSVKGRFTISRDNAKNTVYLQMNSLKPEDTAVYYCAVVSRYIAWRKYDYCGQGTQVTVSS” the “polyreactivity (PSR sort gate)” value was “high polyreactivity”. In the case of “QVQLVESGGGLVQAGGSLRISCAASGRTFYGYTMGWDRQAPGKERELVAAISRNGASTFYADSVKGRFTISRDNAKNTVYLQMNSLKPEDTAVYYCNARSWRHTDTSFEYWGQGTQVTVSS”, the “polyreactivity (PSR sort gate)” value was “high polyreactivity”. With “QVQLVESGGGLVQAGGSLRISCAASGRTFYINAMGWYRQAPGKVWELVASISRSGGGTYYADSVKGRFTISRDNAKNNVYLQMNCLKPEDTAVYYCAAYSWSYSGYNFWGQGTQVTVSS” the “polyreactivity (PSR sort gate)” value was “high polyreactivity”. For “QVQLVESGGGLVQAGGSLRISCAASGRTFYQYDMGWYRQAPGKERELVAAIDWSGGSTYYADSVKGRFTISRDNAKNTVYLQMNSLKPEDTAVYYCNADAYPHPVVGYDYWGQGTQVTVSS”, the “polyreactivity (PSR sort gate)” value was “low polyreactivity”. For “QVQLVESGGGLVQAGGSLRISCAASGSIFATYAMGWYRQAPGKERELVAAISWSSGSTYYADSVKGRFTISRDNAKNTVYLQMNSLNPEDTAVYYCNKDWLAYDSLRVTSTIAFDYWGQGSQVTVSS”, the “polyreactivity (PSR sort gate)” value was “low polyreactivity”. With “QVQLVESGGGLVQAGGSLRISCAASGSIFDTNPMGWYRQAPGKERELVAAITSSGASTYYADSVKGRFTISRDNAKNTVYLQMNSLKPEDTAVYYCAADGAVDGGYWGQGTQVTVSS” the “polyreactivity (PSR sort gate)” value was “low polyreactivity”. With “QVQLVESGGGLVQAGGSLRISCAASGSIFGGYAMGWYRQAPGKERELVAAISSGGSTYYADSVKGRFTISRDNAKNTVYLQMNSLKPEDTAVYYCATSTYAYRRNSYYYTRPRFGYWGQGTQVTVSS” the “polyreactivity (PSR sort gate)” value was “high polyreactivity”. With “QVQLVESGGGLVQAGGSLRISCAASGSIFGYYAMGWYRQAPGKERELVAAITRSGGSTYYADSVKGRFTISRDNAKNTVYLQMNSLKPEDTAVYYCAAYYGHLYYTFDYWGQGTQVTVSS” the “polyreactivity (PSR sort gate)” value was “low polyreactivity”. For “QVQLVESGGGLVQAGGSLRISCAASGSIFHDNAMGWYRQAPGKERELVAASTTSGGNTYYADSVKGRFTISRDNAKNTVYLLMNSLKPEDTAVYYCAAGQSVFASWLDNGWSAYTYYYWGQGTQVTVSS”, the “polyreactivity (PSR sort gate)” value was “low polyreactivity”. In the case of “QVQLVESGGGLVQAGGSLRISCAASGSIFLLYTMGWYRQAPGKEREMVATITSSGGSTYYADSVKGRFTISRDNAKNTVYLHMNSLKPEDTAVYDCNAVGSTWGSFVRYGAQYDYWGQGTEVTVSS”, the “polyreactivity (PSR sort gate)” value was “low polyreactivity”. With “QVQLVESGGGLVQAGGSLRISCAASGSIFQFNAMGWSRQAPGKERELVASISASGGSTYYADSVKGRFTISRDNAKNTVYLQMNSLKPEDTAVYYCAADFIRSWFIWRGSFDYWGLGTQVTVSS” the “polyreactivity (PSR sort gate)” value was “low polyreactivity”. For “QVQLVESGGGLVQAGGSLRISCAASGSIFQGYAMGWYRQAPGKERELVATITWSGGSTYYADSVTGRFTISRDNAKNTVYLQMNSLKPEETAVYYCNADSNGYYLWNYYGMYDYWGQGTEVTVSS”, the “polyreactivity (PSR sort gate)” value was “low polyreactivity”. For “QVQLVESGGGLVQAGGSLRISCAASGSIFRRNAMGWYRQAPGKERELVATITSDGSTDYADSVKGRFTISRDNAKYTVYLQMNRLKPEDTVYYCAAGRTPYWHATFGYWGQGTQVTVSS”, the “polyreactivity (PSR sort gate)” value was “low polyreactivity”. In the case of “QVQLVESGGGLVQAGGSLRISCAASGSNFASYAMGWYRQAPGKERELVSVITSGGRTYYADSVKGRFTISRDNAKNTVYLQMNSLKPEDTAVYYCKAYLFFLNRVWSFDYWGQGTQVTVSS”, the “polyreactivity (PSR sort gate)” value was “high polyreactivity”. For “QVQLVESGGGLVQAGGSLRISCAASGSNFNPYDMGGYRQAPGKESELVAAIRTAGSTYYADSVKGRFTISRDNAKNTVYLQMISLNPEDTAVYYCNADEGFLYSAYEYDYWGQGTQVTVSS”, the “polyreactivity (PSR sort gate)” value was “low polyreactivity”. For “QVQLVESGGGLVQAGGSLRISCAASGSNFTQYDMGWYRQAPGKERELVAAITSGGSTDYADSVKGRFTISRDNAKNTVYLQMNSLKPEDTAVYYCNAEAYPYWYRGASREYDYWGQGTQVTVSS”, the “polyreactivity (PSR sort gate)” value was “low polyreactivity”. In the case of “QVQLVESGGGLVQAGGSLRISCAASGSTFGRNAMGWYSQAPGKERELVAAISSGGSTSYADSVKGRFTISRDNAKYTVYLQMNSLKPEDTAVYYCAAHSVGSQYDYWGQGTQVTVSS”, the “polyreactivity (PSR sort gate)” value was “low polyreactivity”. With “QVQLVESGGGLVQAGGSLRISCAASGSTFYPNAMGWYRPAPGTERELVAAIRGTGGSTYADSVKGRFTISRDNAKNTVYLQMNSLKPEDTAVYYCAAAGWTYRVEKYSVRLTGYDYWGQGTQVTVSS” the “polyreactivity (PSR sort gate)” value was “high polyreactivity”. In the case of “QVQLVESGGGLVQAGGSLRISCAASGSTIAGYTMGLYRQAPGKEMELVAAISRRGSRTYYADSVKGRFTISRDNAKNTVYLQMNSLKPEDTAVYYCNARNRVYYTLSGYGYWGQGTQVTVSS”, the “polyreactivity (PSR sort gate)” value was “high polyreactivity”. In the case of “QVQLVESGGGLVQAGGSLRISCAASGSTLYRNAMGWYRQAPGKERELVAAISRTGGRTYYADSVKGRCTISRDNANNTVYLQMNSLKPEETAVYYCNTLTPSYTSGTHTFYSWGQGTQVTVSS”, the “polyreactivity (PSR sort gate)” value was “high polyreactivity”. With “QVQLVESGGGLVQAGGSLRISCAASRSIFPLNAMGWYRQAPGKERELVAAITRSGGSTYYADSVKGRFTISRDNAKNTVYLQMNSLKPEDTAVYYCATDPEWPLPAYYYWGQGTQVTVSS” the “polyreactivity (PSR sort gate)” value was “low polyreactivity”. With “QVQLVESGGGLVQAGGSLRISCADSGSIFGYNAMGWYRQAPGKERELVAAISWSGGRTYYADSVKGRFTISRDNAKNTVSFQMNSLKPEDTAVYYCAAPSTGTYGSDYWGHGTQVTVSS” the “polyreactivity (PSR sort gate)” value was “high polyreactivity”. For “QVQLVESGGGLVQAGGSLRISCAPSGITLRRNAMGRYRQAPGKERELVARISTTGGSTYYADSVKGRFTISRDNAKNTVYLQMNSLKPEDTAVYYCAARAPLGFWHYDYWGQGTQVTVSS”, the “polyreactivity (PSR sort gate)” value was “high polyreactivity”. In the case of “QVQLVESGGGLVQAGGSLRISCAPSGSIFSDYAMGWYRQAPGKERELVATISSSGSTNYADSVKGRFTISRDNAKNTVYLQMNSLKPEDTAVYYCAAARLFAMDYWGQGTQVTVSS”, the “polyreactivity (PSR sort gate)” value was “low polyreactivity”. For “QVQLVESGGGLVQAGGSLRISCAPSGSTFPRYAMGWYRQAPGKEREFVAVIWSGGSTYYADSVKGRFTISRDNAKNTVYLQMNSLKPEDTAVYYCAAEYHTLSKYSGYATHDYWGQGTQVTVSS”, the “polyreactivity (PSR sort gate)” value was “low polyreactivity”. With “QVQLVESGGGLVQAGGSLRISCASSGNTFTSYAMGWYRQAPGKASELVASIDSDDSTNYADSVKGRFTISRDNAKNTDYFQMNSLKPEETAVFYCAASDNDDWYYVYHYDYWVQGTQVTVSS” the “polyreactivity (PSR sort gate)” value was “low polyreactivity”. With “QVQLVESGGGLVQAGGSLRISCDASGSIISRNAMGWYRQAPGKEREFVAAITRSGGSTSYADSVKGRFTISRDNAKNTVYLQMNSLKPEDTAVYYCAASYARSATAYYKYYDWGQGTQVTVSS” the “polyreactivity (PSR sort gate)” value was “high polyreactivity”. With “QVQLVESGGGLVQAGGSLRISCDASGSTFKLYPMGWYRQAPGKEREFVAAISRSGGSTNYADSVNGRFTISRDNAKNTVYLQMNSLKPEDTAVYYCAARYPGNYDYWGQGTQVTVSS” the “polyreactivity (PSR sort gate)” value was “high polyreactivity”. With “QVQLVESGGGLVQAGGSLRISCDPSGSTFGQYAMGSYRQAPGKERELVAAINWNGGSTYYADSVKGRFTISRDNAKNTVYLQMNSLKPEDTAVYYCAADPVYYDFDYWGQGTQVTVSS” the “polyreactivity (PSR sort gate)” value was “low polyreactivity”. In the case of “QVQLVESGGGLVQAGGSLRISCVASARTFRWYAMGWYRQAPGKERELVATITLNGGSTYYADSVKGRFTISRDNAKNNVYLQMNSLKPEDTAVYYCNRGTNVVRRGVYSFGYDYWGQGTQVTVSS”, the “polyreactivity (PSR sort gate)” value was “low polyreactivity”. In the case of “QVQLVESGGGLVQAGGSLRISSAASGFIFSLNAMGWYRQAPGKERELVASITRSGTRTYYADSVKGRFTISRDNAKKTDFLQRNSLKPEATAVDYCAARTKRSYEYQAFYYWGQGTQVTVSS”, the “polyreactivity (PSR sort gate)” value was “high polyreactivity”. In the case of “QVQLVESGGGLVQAGGSLRISSAASGRIFRVNGIGWYIQAPGKERELVAAIRRSGGSTYYADSVKGRFTISRDNAKNSVYLLMNILKPDDTAVYFCAAPVRQSSYTRYDSWGQGTQVTVSS”, the “polyreactivity (PSR sort gate)” value was “high polyreactivity”. With “QVQLVESGGGLVQAGGSLRISSAASGRMLYSYAMGWYRQAPGKESEFVAAIRRSGGSTYYADSVKGRFTISRDNAKNTVYLQMNSLKPEDTAFYYCAAGRRYSGSYDYWGQGTQVTVSS” the “polyreactivity (PSR sort gate)” value was “high polyreactivity”. With “QVQLVESGGGLVQAGGSLRITCAASGSTFYGKSMGLYRQAPGKERELVAAISRGGGSTYYADSVKGRFTISRDNAKNTVYLQMNSLIPEDTAVYYCAGTRYLHPWYYPYYYWGQGTQVTVSS” the “polyreactivity (PSR sort gate)” value was “low polyreactivity”. For “QVQLVESGGGLVQAGGSLRLALLTPDLPSTINDMGWYRQAPGKERELVAAITRGGSTNYADSVKGRFTISRDNAKNTVYLQMNSLKPEDTAVYYCAAPSAGWRDGGDYWGHGTQVTVSS”, the “polyreactivity (PSR sort gate)” value was “low polyreactivity”.
